Measured values published in the Immune Epitope Database (IEDB).

Columns and labels:
Test in all cases: IEDB peptide-MHC binding, purified MHC/competitive/radioactivity; ≥ and ≤ were set here for values at or beyond the usual limits of such assays
Settings in all cases: source organism: Bordetella pertussis
HLA-B*35:01 = target: HLA-B*35:01
HLA-B*44:03 = target: HLA-B*44:03
HLA-B*53:01 = target: HLA-B*53:01
HLA-B*07:02 = target: HLA-B*07:02
HLA-B*57:01 = target: HLA-B*57:01

PFIIKLKDC
IC50 (HLA-B*35:01): 11.6 µM

YEVTPTRML
IC50 (HLA-B*44:03): 19 µM

YSTGDLRAY
IC50 (HLA-B*35:01): 31.4 µM

VIGACTSPY
IC50 (HLA-B*35:01): 62.6 µM

HADWNNQSI
IC50 (HLA-B*53:01): 12.4 µM

PLPPRPVVA
IC50 (HLA-B*44:03): 55.9 µM

LPPRPVVAE
IC50 (HLA-B*07:02): ≥ 77.5 µM

GEIALGDAT
IC50 (HLA-B*44:03): 15.6 µM

TPLPVSLTA
IC50 (HLA-B*35:01): 0.209 µM
IC50 (HLA-B*53:01): 11.8 µM

VARLVKLQG
IC50 (HLA-B*57:01): ≥ 70.4 µM

YALKSRIAL
IC50 (HLA-B*35:01): 19.3 µM

KAKSLTTEI
IC50 (HLA-B*57:01): ≥ 70.4 µM

KEVDGIIQE
IC50 (HLA-B*44:03): 39.1 µM
